Ends that are not written are not given here.
Target: H2-D^b (mouse MHC I heavy chain ectodomain) refolded with human β2-microglobulin (mouse | human)
Assay: FP

Binder: ASNC(TAMRA)NMETM [ASNC*NMETM (fluorescently labeled high-affinity peptide for H2-D^b)]
- koff: 0.00035 s⁻¹

From paper PMC7117912 (2020)
